The record followed here is paper PMC5555201, “Parallel homodimer structures of the extracellular domains of the voltage-gated sodium channel β4 subunit explain its role in cell–cell adhesion” (The Journal of Biological Chemistry, 2017).

Data set [1] deals with the molecule itself. The data set is described as follows: SEC; HiLoad 16/60 Superdex 75, non-reducing conditions; second peak (65–75 ml) of the anion exchange chromatography; 20 mM Tris-HCl (pH 8.0), 150 mM NaCl, 10% glycerol.
Data set [2] concerns the molecule itself. The data set is described as follows: crystal structure; mouse β4ex, cubic crystal form, 3.1 Å; 2.7 M sodium malonate, 0.1 M Tris-HCl (pH 7.0), 0.5% Tween 20, 20 °C; two molecules in the asymmetric unit related by non-crystallographic 2-fold symmetry.

In general, stoichiometry N refers to the number of molecules, sites or subunits per partner or assembly.

B1: human β4 subunit extracellular domain fragment (residues 30–152) (domain or fragment, UniProt Q8IWT1-1 30-152, looked up)
chain: SLEVSVGKATDIYAVNGTEILLPCTFSSCFGFEDLHFRWTYNSSDAFKILIEGTVKNEKSDPKVTLKDDDRITLVGSTKEKMNNISIVLRDLEFSDTGKYTCHVKNPKENNLQHHATIFLQVV
notes: voltage-gated sodium channel β4 subunit, human, GenBank NP_777594, residues 30–152; all three Cys residues kept; His tag cleaved by tobacco etch virus protease; also called human β4ex; human β4 (hexagonal form); source: E. coli cell-free protein synthesis, purified (HisTrap, HiTrap Q, Superdex 75); not shown: His tag, N-terminal, cleaved
In the case of B1, the “stoichiometry N” value in data set [1] turned out to be 2.

B2: mouse β4 subunit extracellular domain fragment (residues 30–160) with a C-terminal His6 tag (domain or fragment, UniProt Q7M729 30-160, looked up)
chain: SLEVSVGKATTIYAINGSSILLPCTFSSCYGFENLYFKWSYNNSETSRILIDGIVKNDKSDPKVRVKDDDRITLEGSTKEKTNNISILLSDLEFSDTGRYTCFVRNPKEKDLNNSATIFLQVVDKLEKVDN
notes: voltage-gated sodium channel β4 subunit, mouse, GenBank BK001031.1, residues 30–160 (numbering starts from the initiator methionine residue); all three Cys residues kept; Cloned into pGEX6P2; GST cleaved with PreScission protease; also called mouse β4ex; mouse β4 (cubic form); source: E. coli BL21DE3, purified (nickel-Sepharose, glutathione-Sepharose, Mono Q); not shown: His6, C-terminal, kept
On to B2, for which the binding result in data set [2] was “binds”.
